Two proteins from paper PMC6702468 can be followed below.

Substrate in this data set: O[Si](O)(O)O
The data set can be described thus: cells, lysate or membranes. To be noted: unit not printed beside Km, taken from [Si]ext in mM.

As a reminder, the Km is the concentration of substrate that gives half-maximal velocity.

B1: NsLsi1 (NsNIP2-1) (Nicotiana sylvestris) (protein)
chain: MESERGNSTENKKPNELVSVENPKSNLSFRYILIFFQEHYPPGFLKKVIAEVIATYLLVFVTCGAAAISASDEHKVSRLGASVAGGLIVTVMIYAVGHISGAHMNPAVTFAFAAVRHFPWRQVPPYAAAQLTGATSAAFTLRVLLHPIKHVGTTTPSGSDIQALIMEIVVTFSMMFITSAVATDTKAIGELAGMAVGSAVCITSILAGPVSGGSMNPARTIGPAMASNDYRGIWVYIIGPVCGTLLGAWSYNFIRVTDKPVHAIAPGQSFSFKLRRMKSNDEEQGV
Take B1: the Michaelis-Menten constant (Km) (3 hr exposure in modified Barth's solution pH 7.4, room temperature, H2O-injected background subtracted, transport, R2 = 0.90, pH 7.4) was found to be 0.94 ± 0.30 mM.

B2: NsLsi1 (NsNIP2-1) (Nicotiana sylvestris; P125F) (protein)
chain: MESERGNSTENKKPNELVSVENPKSNLSFRYILIFFQEHYPPGFLKKVIAEVIATYLLVFVTCGAAAISASDEHKVSRLGASVAGGLIVTVMIYAVGHISGAHMNPAVTFAFAAVRHFPWRQVPFYAAAQLTGATSAAFTLRVLLHPIKHVGTTTPSGSDIQALIMEIVVTFSMMFITSAVATDTKAIGELAGMAVGSAVCITSILAGPVSGGSMNPARTIGPAMASNDYRGIWVYIIGPVCGTLLGAWSYNFIRVTDKPVHAIAPGQSFSFKLRRMKSNDEEQGV
Take B2: the Km (otherwise as WT, paper states a linear equation fits best (R2 = 0.99) and Km lies far above the tested range (up to 2 mM)) is reported as 12.83 ± 8.49 mM.
